The data set has as its system TR/CAR chimera (TR beta A/B and C domains fused to CAR D, E, F domains). Description: cell_activity. The conditions noted are these: no ligand, charcoal-stripped serum; JEG3 cells.

Take “AAAGGTAAGATCAGGGACGTGACCGCAG (double strand) [T3RE]”: the activity (% of TR beta response) is > 50.

The values are drawn from patent publication US5686574.
